This is an account of results in patent US20170002075A1 (AbbVie / Abbott, published 2017).

Assay [1] addresses T1, E. coli RAGE Construct #5, 6His-(Thr)-[RAGE (130-234)] (human).
T1 construct: Expressed in E. coli with an N-terminal 6His-(Thr) tag, which is part of the entry; also called RAGE protein #5
T1 chain: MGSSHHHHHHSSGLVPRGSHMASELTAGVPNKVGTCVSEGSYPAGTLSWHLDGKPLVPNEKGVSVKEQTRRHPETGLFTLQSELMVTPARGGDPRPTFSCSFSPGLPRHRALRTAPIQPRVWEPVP
Put plainly: ELISA: RAGE 130-234 (E. coli, D#1477) coated, mAb titrated, anti-mouse HRP conjugate, TMB. As to the method: (§1) Antigens (purified construct #1-7 proteins) were diluted into Coating Buffer [100 mM NaHCO₃, pH 8.2] to 1 μg/ml, and 100 μl of the resulting solution was then aliquoted into a 96-well Nunc Immuno Plate (Maxi-Sorb Surface, flat bottom, catalog #439454). The plate was sealed with sealing film and incubated at 4° C. overnight. The next day, the plate wells were each washed 3 times with 150 μL PBST buffer [Sigma PBS+0.05% Tween 20]. Then 300 ul of blocking solution (3% NFDM in PBST) was added to each well. The plate was incubated for 2 hours at room temperature and shaking at 100 rpm. After the incubation step, each well was again washed three times with 150 uL PBST. […] The plate was then sealed with sealing film and incubated for 2 hours at room temperature and shaking at 100 rpm. Next the antibody solution was drained out of the wells, and each well then washed three times with 200 ul PBST. To each well then 200 ul of a 1:5000 dilution (in PBST/1% NFDM) of conjugated secondary antibody [Donkey anti-mouse HRPO conjugate, Jackson Immuno Research, Catalog #715-035-150] was added. The plate was covered and allowed to incubate for 1 hour at room temperature while shaking at 100 rpm. Following this incubation, the solution was removed from the wells and each well was washed three times with 200 ul PBST. To each well 100 μL of HRPO substrate [3,3′,5′,5′-Tetramethylbenzidine Liquid Substrate (TMB), Supersensitive for ELISA, Sigma Catalog #T4444] solution was added and the plate incubated at room temperature for 10 minutes. Finally, 50 μL of 2M H₂SO₄ was added to each well to stop the reaction and the A₅₄₀ₙₘ of each well was measured using a microtiter plate reader.
A general note: An ELISA detects its analyte on a solid surface through an enzyme-linked reagent.

Assay [2] deals with T2, E. coli RAGE Construct #6, 6His-(Thr)-[RAGE (130-336)] (human, UniProt Q15109 130-336).
T2 construct: Expressed in E. coli with an N-terminal 6His-(Thr) tag, which is part of the entry; also called RAGE protein #6
T2 sequence (Q15109 other isoform, or with tags, fused parts or gaps limits assumed): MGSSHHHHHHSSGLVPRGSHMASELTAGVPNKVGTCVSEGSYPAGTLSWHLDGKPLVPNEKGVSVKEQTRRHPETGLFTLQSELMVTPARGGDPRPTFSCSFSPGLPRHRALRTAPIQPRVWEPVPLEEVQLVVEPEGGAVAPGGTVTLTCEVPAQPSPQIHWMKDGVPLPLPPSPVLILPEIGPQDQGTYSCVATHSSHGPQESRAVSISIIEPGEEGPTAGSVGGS
Put plainly: ELISA: RAGE 130-336 (E. coli, D#1478) coated, mAb titrated, anti-mouse HRP conjugate, TMB. As to the method: as §1

For assay [3], the target named is T3, E. coli RAGE Construct #7, 6His-(Thr)-[RAGE (235-336)] (human).
T3 construct: Expressed in E. coli with an N-terminal 6His-(Thr) tag, which is part of the entry; also called RAGE protein #7
T3 chain: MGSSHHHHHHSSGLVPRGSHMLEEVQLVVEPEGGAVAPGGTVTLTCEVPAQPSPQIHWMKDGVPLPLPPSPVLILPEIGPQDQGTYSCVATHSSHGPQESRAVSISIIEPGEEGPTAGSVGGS
The assay can be described thus: ELISA: RAGE 235-336 (E. coli, D#1479) coated, mAb titrated, anti-mouse HRP conjugate, TMB. As to the method: as §1

In assay [4] the target is T4, hRAGE (1-331) / human sRAGE 1-331, V#400 (human, UniProt Q15109 23-331).
T4 construct: also called sRAGE [RAGE (1-331)]; RAGE (antigen of the Biacore runs)
T4 sequence (Q15109 23-331): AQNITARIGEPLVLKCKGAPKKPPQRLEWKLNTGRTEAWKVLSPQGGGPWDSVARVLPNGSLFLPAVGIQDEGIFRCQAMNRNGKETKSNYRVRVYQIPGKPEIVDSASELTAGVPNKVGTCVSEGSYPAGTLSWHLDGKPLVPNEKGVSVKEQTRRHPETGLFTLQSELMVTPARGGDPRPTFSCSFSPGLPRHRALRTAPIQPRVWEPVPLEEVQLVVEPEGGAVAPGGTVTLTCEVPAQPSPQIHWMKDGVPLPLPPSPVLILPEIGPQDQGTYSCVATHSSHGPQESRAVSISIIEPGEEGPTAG
The assay can be described thus: Biacore 2000 SPR, mAb captured via anti-mouse Fc, RAGE injected 20-0.31 nM, HBS-EP+ buffer, 1:1 fit. As to the method:
The assay format for mAb affinity analysis was Fc-based capture via immobilized anti-Fc antibodies. A standard amine coupling protocol was employed to immobilize Fc-specific IgG via primary amines to the carboxy-methyl (CM) dextran surface of CM5 sensorchips (Biacore). […] Briefly, the CM-dextran surfaces were activated by freshly prepared 1:1 50 mM N-hydroxysuccinimide (NHS):200 mM 3-(N,N-dimethylamino) propyl-N-ethylcarbodiimide (EDC). Then the anti-Fc IgG capture reagent (20 ug/ml in 10 mM sodium acetate, pH4.5) was applied to the surface followed by deactivation of the surface and blocking of the residual reactive sites with 1M ethanolamine (pH 8.5).
Each experimental cycle consisted of the following steps: 1) anti-RAGE mAbs were captured in flowcells 2, 3 or 4 to a level of 50-200 RU (depending on the antigen). All measurements were referenced against flowcell 1 which had no captured anti-RAGE mAb. […] 3) the anti-Fc capture surface was regenerated with low pH glycine.
Briefly, the data were double referenced by first, subtracting the signal from the reference cell and second, by subtracting the signal from buffer-only injections.
For orientation: In SPR one partner is held on a chip, and binding of the other changes the refractive index at the surface.

In assay [5] the target is T5, recombinant human RAGE (plate coat of the competition ELISA of Example 1.4).
T5 construct: not shown: The carrier of the coated preparation, if it had one
T5 sequence (chain, as listed by the source limits assumed): as the sequence (Q15109 23-331) above
Put plainly: competition ELISA on plates coated with recombinant human RAGE (2 µg/mL); competitor: biotinylated hybridoma-derived 11E6 (11E6-biotin), streptavidin-HRP, OD 450 nm; the unit comes from the axis 'Log MAbs (M)'. As to the method:
The purified chimeric anti-human RAGE monoclonal antibodies were tested for their ability to bind human RAGE in a competition ELISA. […] Equal volumes (50 μL) of each recombinant chimeric anti-human RAGE monoclonal antibodies or hybridoma-derived anti-human RAGE monoclonal antibodies and each corresponding biotinylated hybridoma-derived anti-RAGE mAbs were mixed. 50 μL of this mixture was then added to ELISA plates pre-coated with recombinant human RAGE at 2 μg/mL and incubated for 1.5 hours at room temperature. Wells were washed three times with PBS+0.05% Tween-20. Streptavidin HRP (1 mg/mL) was diluted 1:16000 in PBST+10% Superblock; 50 µL/well was added and the plates incubated for 1 hour at room temperature. Plates were washed 3 times with PBS+0.05% Tween-20. 50 µL of TMB solution (Sigma, St Louis, Mo.) was added to each well and incubated for 10 minutes at room temperature. The reaction was stopped by addition of IN sulphuric acid. Plates were read spectrophotometrically at a wavelength of 450 nm.

Assay [6] deals with mouse RAGE (Mu-RAGE) (mouse, UniProt Q62151 23-340, limits assumed). Put plainly: Biacore SPR (Table 7, column Mouse-RAGE); paragraph 283: 'Table 7 shows that 4E5 did not bind to mouse RAGE (Mu-RAGE)'.
Sequence of mouse RAGE (Mu-RAGE) (Q62151 23-340 limits assumed): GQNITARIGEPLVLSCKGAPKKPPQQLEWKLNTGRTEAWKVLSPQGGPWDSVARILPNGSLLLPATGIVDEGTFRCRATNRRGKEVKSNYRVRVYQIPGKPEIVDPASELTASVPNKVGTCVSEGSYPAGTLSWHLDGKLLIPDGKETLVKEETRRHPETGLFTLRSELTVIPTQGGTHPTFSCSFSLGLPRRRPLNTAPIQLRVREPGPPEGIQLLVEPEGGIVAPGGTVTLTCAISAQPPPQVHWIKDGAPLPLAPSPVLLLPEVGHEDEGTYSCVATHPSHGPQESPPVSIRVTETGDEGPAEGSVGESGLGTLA
Assay [7] concerns the target T6, E. coli RAGE Construct #1, OmpA-[RAGE (23-340)]-6His (human, UniProt Q15109 23-340).
T6 construct: Not glycosylated (E. coli); also called RAGE protein #1; E. coli-expressed sRAGE
Put plainly: ELISA, fragment coated at 1 µg/ml. As to the method:
as §1, with “Following this incubation, the solution was removed from the wells and each well was washed three times with 200 ul PBST. To each well 100 μL of HRPO substrate [3,3′,5′,5′-Tetramethylbenzidine Liquid Substrate (TMB), Supersensitive for ELISA, Sigma Catalog #T4444] solution was added and the plate incubated at room temperature for 10 minutes.” left out

T6 sequence (Q15109 other isoform, or with tags, fused parts or gaps limits assumed): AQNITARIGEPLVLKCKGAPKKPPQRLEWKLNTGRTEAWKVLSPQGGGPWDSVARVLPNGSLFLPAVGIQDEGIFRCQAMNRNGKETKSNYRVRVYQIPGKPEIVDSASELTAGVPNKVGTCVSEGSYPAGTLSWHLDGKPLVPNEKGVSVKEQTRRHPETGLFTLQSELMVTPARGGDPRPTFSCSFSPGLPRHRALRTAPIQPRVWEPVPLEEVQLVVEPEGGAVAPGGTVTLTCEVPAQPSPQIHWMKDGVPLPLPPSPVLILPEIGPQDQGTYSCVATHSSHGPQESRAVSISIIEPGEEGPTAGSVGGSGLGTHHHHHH

B1: anti-human RAGE monoclonal antibody 11E6 (murine, hybridoma-derived) (antibody, V domains shown)
VH: QIQLVQSGPELKKPGETVKISCKASGYTFTNFGMNWVKQAPGKGLKWMGYINTNTGESIYSEEFKGRFAFSLETSASTAYLQINNLKNEDTATYFCARSRMVTAYGMDYWGQGTSVTVSS
VL: DIVMTQSQKFMSTSVGDRVSITCKASQNVGTAVAWYQQRPGQSPKLLIFSASNRYTGVPDRFTGSGSGTDFTLTLSNMQPEDLADYFCQQYSSYPLTFGVGTKLELKR
notes: also called mAb11E6; ML37-11E6
What is called EC50 (read off the curve) is the concentration giving half of the maximal effect. Read a low EC50 (read off the curve) as higher potency in that assay. By Kd is commonly meant the constant that tells how readily two partners part at equilibrium. Higher therefore signals a looser complex. As usually defined, the EC50 is the midpoint of the concentration-response curve. Turning to B1, in assay [1], the binding result was “no binding”. Further, the “EC50 (read off the curve)” value in assay [2] was about 0.6 nM; in assay [3], about 0.04 nM. For the same molecule, in assay [4], the Kd came to 0.29 nM. Further, the EC50 in assay [5] was 90.9 nM.

B2: anti-human RAGE monoclonal antibody 4E5 (murine, hybridoma-derived) (antibody, V domains shown)
VH: QVQLQQSGAELVRPGTSVKVSCKASGYAFNNYLIEWIKQRPGQGLEWIGVINPGSGGTNHNEKFKVKATLTADKSSSTAYIQLSSLTSDDSAVYFCARSAGTARARFAYWGQGTLVTVSA
VL: DIQMTQSPSSLSASLGERVSLTCRASQDIGSSLNWLQQEPDGTIKRLIYATSSLDSGVPKRFSGSRSGSDYSLTISSLESEDFVDYYCLQYASFPFTFGSGTKLEIKR
notes: also called mAb4E5; ML37-4E5
For the molecule B2, the binding result in assay [1] and in assay [6] was “no binding” in each case. The “EC50 (read off the curve)” value in assay [2] is about 0.5 nM; in assay [3] it was about 0.03 nM. For the same molecule, binding in assay [4] was characterised by a dissociation constant (Kd) of 2.2 nM.

B3: anti-human RAGE monoclonal antibody 7F9 (murine, hybridoma-derived) (antibody, V domains shown)
VH: EEKLEESGGGLVQLGGSMKISCVASGFTLSNYWMDWVRQSPEKGLEWIAEIRLKSNYYSTHYAESVKGRFSISRDDSKGSVSLQMDNLTAEDTGIYFCARNAYWYFDVWGTGTTVTVSS
VL: DIVMTQSHKFMSTSVGDRVSATCKASQDVGTSVAWYQQKLGQSPKLLIYWTSTRHTGVPDRFTGSGSGTDFTLTISNVQSEDLADYFCQQYNNYPLTFGDGTKLELKR
notes: also called mAb7F9; MAb 7F9
For the molecule B3, the binding result in assay [7], in assay [1], in assay [2] and in assay [3] was “no binding” each time. Further, the Kd in assay [4] was determined as 0.11 nM.
